Experimental data reported in patent US20050002923A1 (published 2005).

How the values were obtained:
[1] = tested on: UvrA (Bca) (Bacillus caldotenax); settings: UV damage, 200 J/m2; ATPase; 13.2 without DNA; 37 C
[2] = tested on: UvrA2UvrB (Bca) (Bacillus caldotenax); settings: UV damage, 200 J/m2; ATPase; 18.3 without DNA
[3] = target: UvrA2 Δβh UvrB (Bca) UvrB deletion Gln97-Asp112 replaced by Gly (Bacillus caldotenax) (UniProt P56981); settings: UV damage, 200 J/m2; ATPase; 19.0 without DNA
[4] = tested on: UvrA (Bca) (Bacillus caldotenax); assay: EMSA; settings: central (+)-trans-BPDE-N2-guanine adduct; ABC buffer, 10 mM MgCl2, 1 mM ATP, 37 C, 20 min; fitted as UvrA dimer
[5] = tested on: UvrA (Eco) (Escherichia coli); assay: EMSA; settings: central (+)-trans-BPDE-N2-guanine adduct; CITED Zou et al. 1998; cited from earlier work
[6] = target: Bca UvrA + Eco UvrB (Bacillus caldotenax / Escherichia coli) (UniProt P0A8F8); assay: EMSA; settings: central (+)-trans-BPDE-N2-guanine adduct; 10 nM UvrA, 100 nM Eco UvrB, 1 mM ATP, 10 mM MgCl2, 37 C; all substrate bound at 250 nM Eco UvrB
[7] = tested on: Eco UvrA + Eco UvrB + Eco UvrC (Escherichia coli); assay: cleavage_in_vitro; settings: central (+)-trans-BPDE-N2-guanine adduct; 37 C 20 min; abolished by UvrA preincubation at 65 C for 10 min; figure legend says cis adduct, text says trans
[8] = tested on: Bca UvrA + Eco UvrB + Eco UvrC (Bacillus caldotenax / Escherichia coli); assay: cleavage_in_vitro; settings: central (+)-trans-BPDE-N2-guanine adduct; 10 nM UvrA, 100 nM UvrB, 5 nM UvrC, 37 C 20 min; 83% and 60% after UvrA preincubation at 65 C for 10 and 30 min; figure legend says cis adduct, text says trans
[9] = tested on: UvrA (Bca) (Bacillus caldotenax); settings: ATPase stimulated about 10-fold by 5.6 nM dsDNA (control 4.42; 18.4 at 0.224 nM), 37 C
[10] = tested on: UvrA (Eco) (Escherichia coli); settings: ATPase inhibited 23% by 0.224 nM dsDNA (control 71.5), 37 C
[11] = target: T1, E. coli UvrB protein (Escherichia coli, UniProt A7ZJI8 1-673); assay: gel mobility shift with BPDE-DNA substrate, 37° C.
T1 construct: also called Eco UvrB; UvrB (Eco)
T1 sequence: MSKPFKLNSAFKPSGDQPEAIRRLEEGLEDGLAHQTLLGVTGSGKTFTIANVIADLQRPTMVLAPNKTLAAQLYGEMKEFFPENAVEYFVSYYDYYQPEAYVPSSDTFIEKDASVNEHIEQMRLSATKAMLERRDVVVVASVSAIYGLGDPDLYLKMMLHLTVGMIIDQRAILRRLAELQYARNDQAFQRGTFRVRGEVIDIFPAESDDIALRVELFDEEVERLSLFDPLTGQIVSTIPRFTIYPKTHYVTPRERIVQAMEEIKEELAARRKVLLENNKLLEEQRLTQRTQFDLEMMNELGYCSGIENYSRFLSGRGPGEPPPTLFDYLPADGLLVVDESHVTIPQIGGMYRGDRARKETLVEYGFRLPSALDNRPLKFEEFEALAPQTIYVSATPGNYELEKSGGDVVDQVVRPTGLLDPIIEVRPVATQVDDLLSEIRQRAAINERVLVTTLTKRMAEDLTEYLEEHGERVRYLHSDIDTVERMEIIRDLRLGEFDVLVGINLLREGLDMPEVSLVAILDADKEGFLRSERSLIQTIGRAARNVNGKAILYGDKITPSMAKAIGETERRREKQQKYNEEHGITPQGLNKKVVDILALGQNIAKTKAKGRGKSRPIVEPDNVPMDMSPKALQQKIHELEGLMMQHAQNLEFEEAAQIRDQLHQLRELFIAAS

[12] = target: T2, Bacillus caldotenax (Bca) UvrA protein
T2 chain: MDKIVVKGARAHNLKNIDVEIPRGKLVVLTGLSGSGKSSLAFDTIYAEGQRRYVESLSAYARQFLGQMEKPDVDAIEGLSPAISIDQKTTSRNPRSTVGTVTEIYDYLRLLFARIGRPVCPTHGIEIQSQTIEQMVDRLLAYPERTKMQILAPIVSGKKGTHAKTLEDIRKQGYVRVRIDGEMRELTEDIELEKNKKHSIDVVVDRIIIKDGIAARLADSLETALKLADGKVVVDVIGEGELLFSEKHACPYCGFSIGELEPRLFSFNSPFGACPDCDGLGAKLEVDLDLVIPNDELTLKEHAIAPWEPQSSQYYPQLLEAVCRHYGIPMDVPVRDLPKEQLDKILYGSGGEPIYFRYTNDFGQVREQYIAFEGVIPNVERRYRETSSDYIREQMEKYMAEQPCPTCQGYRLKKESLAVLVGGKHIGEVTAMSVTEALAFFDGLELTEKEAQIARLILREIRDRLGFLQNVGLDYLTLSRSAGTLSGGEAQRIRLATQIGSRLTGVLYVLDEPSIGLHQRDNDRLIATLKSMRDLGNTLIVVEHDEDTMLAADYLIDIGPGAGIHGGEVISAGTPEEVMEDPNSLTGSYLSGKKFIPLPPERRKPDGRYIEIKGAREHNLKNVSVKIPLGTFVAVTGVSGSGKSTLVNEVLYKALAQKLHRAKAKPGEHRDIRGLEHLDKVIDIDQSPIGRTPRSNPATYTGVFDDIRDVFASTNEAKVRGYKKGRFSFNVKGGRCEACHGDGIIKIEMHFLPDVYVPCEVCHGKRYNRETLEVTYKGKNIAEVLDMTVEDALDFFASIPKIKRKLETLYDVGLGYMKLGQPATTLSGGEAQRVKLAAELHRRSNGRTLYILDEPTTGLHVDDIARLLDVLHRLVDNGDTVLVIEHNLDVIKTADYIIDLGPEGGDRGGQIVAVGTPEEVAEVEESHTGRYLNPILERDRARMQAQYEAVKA

UV-irradiated pUC18 DNA
activity (mol ATP/mol protein/min) [1]: 17
activity (mol ATP/mol protein/min) [2]: 22
activity (mol ATP/mol protein/min) [3]: 29

(+)-trans-BPDE-N2-dG 50-bp duplex
Kd [4]: 25 nM
Kd [5]: 7.5 nM
binding (% bound as UvrB-DNA) [6]: > 50
activity [7]: 67 % incised
activity [8]: 89 % incised

pGL-2 plasmid DNA (undamaged)
activity (uM ADP/min/uM UvrA) [9]: 45.6
activity (uM ADP/min/uM UvrA) [10]: 55.4

B1: Bacillus caldotenax (Bca) UvrA protein (enzyme)
chain: MDKIVVKGARAHNLKNIDVEIPRGKLVVLTGLSGSGKSSLAFDTIYAEGQRRYVESLSAYARQFLGQMEKPDVDAIEGLSPAISIDQKTTSRNPRSTVGTVTEIYDYLRLLFARIGRPVCPTHGIEIQSQTIEQMVDRLLAYPERTKMQILAPIVSGKKGTHAKTLEDIRKQGYVRVRIDGEMRELTEDIELEKNKKHSIDVVVDRIIIKDGIAARLADSLETALKLADGKVVVDVIGEGELLFSEKHACPYCGFSIGELEPRLFSFNSPFGACPDCDGLGAKLEVDLDLVIPNDELTLKEHAIAPWEPQSSQYYPQLLEAVCRHYGIPMDVPVRDLPKEQLDKILYGSGGEPIYFRYTNDFGQVREQYIAFEGVIPNVERRYRETSSDYIREQMEKYMAEQPCPTCQGYRLKKESLAVLVGGKHIGEVTAMSVTEALAFFDGLELTEKEAQIARLILREIRDRLGFLQNVGLDYLTLSRSAGTLSGGEAQRIRLATQIGSRLTGVLYVLDEPSIGLHQRDNDRLIATLKSMRDLGNTLIVVEHDEDTMLAADYLIDIGPGAGIHGGEVISAGTPEEVMEDPNSLTGSYLSGKKFIPLPPERRKPDGRYIEIKGAREHNLKNVSVKIPLGTFVAVTGVSGSGKSTLVNEVLYKALAQKLHRAKAKPGEHRDIRGLEHLDKVIDIDQSPIGRTPRSNPATYTGVFDDIRDVFASTNEAKVRGYKKGRFSFNVKGGRCEACHGDGIIKIEMHFLPDVYVPCEVCHGKRYNRETLEVTYKGKNIAEVLDMTVEDALDFFASIPKIKRKLETLYDVGLGYMKLGQPATTLSGGEAQRVKLAAELHRRSNGRTLYILDEPTTGLHVDDIARLLDVLHRLVDNGDTVLVIEHNLDVIKTADYIIDLGPEGGDRGGQIVAVGTPEEVAEVEESHTGRYLNPILERDRARMQAQYEAVKA
notes: Full-length recombinant protein made in E. coli as a UvrA-intein-CBD fusion and released by DTT cleavage; also called B. caldotenax UvrA; UvrASD
binding result [11]: binds

B2: Bacillus caldotenax (Bca) UvrB protein, wild type (protein)
chain: VEGRFQLVAPYEPQGDQPQAIAKLVDGLRRGVKHQTLLGATGTGKTFTISNVIAQVNKPTLVIAHNKTLAGQLYSELKEFFPHNAVEYFVSYYDYYQPEAYVPQTDTYIEKDAKINDEIDKLRHSATSALFERRDVIIVASVSCIYGLGSPEEYRELVVSLRVGMEIERNALLRRLVDIQYDRNDIDFRRGTFRVRGDVVEIFPASRDEHCIRVEFFGDEIERIREVDALTGEVLGEREHVAIFPASHFVTREEKMRLAIQNIEQELEERLAELRAQGKLLEAQRLEQRTRYDLEMMREMGFCSGIENYSRHLALRPPGSTPYTLLDYFPDDFLIIVDESHVTLPQLRGMYNGDRARKQVLVDHGFRLPSALDNRPLTFEEFEQKINQIIYVSATPGPYELEHSPGVVEQIIRPTGLLDPTIDVRPTKGQIDDLIGEIRERVERNERTLVTTLTKKMAEDLTDYLKEAGIKVAYLHSEIKTLERIEIIRDLRLGKYDVLVGINLLREGLDIPEVSLVAILDADKEGFLRSERSLIQTIGRAARNANGHVIMYADTITKSMEIAIQETKRRRAIQEEYNRKHGIVPRTVKKEIRDVIRATYAAEETEMYEAKPAAAMTKQEREELIRTLEAEMKEAAKALDFERAAQLRDIIFELKAEG
ATPase activity (mol of ATP hydrolyzed/mol of protein/min) [12]: 18.3
ATPase activity (with UV-irradiated DNA) (mol of ATP hydrolyzed/mol of protein/min) [12]: 22

B3: β-hairpin deletion mutant of B. caldotenax UvrB (Δβh UvrB) (protein)
chain: VEGRFQLVAPYEPQGDQPQAIAKLVDGLRRGVKHQTLLGATGTGKTFTISNVIAQVNKPTLVIAHNKTLAGQLYSELKEFFPHNAVEYFVSYYDYYGAKINDEIDKLRHSATSALFERRDVIIVASVSCIYGLGSPEEYRELVVSLRVGMEIERNALLRRLVDIQYDRNDIDFRRGTFRVRGDVVEIFPASRDEHCIRVEFFGDEIERIREVDALTGEVLGEREHVAIFPASHFVTREEKMRLAIQNIEQELEERLAELRAQGKLLEAQRLEQRTRYDLEMMREMGFCSGIENYSRHLALRPPGSTPYTLLDYFPDDFLIIVDESHVTLPQLRGMYNGDRARKQVLVDHGFRLPSALDNRPLTFEEFEQKINQIIYVSATPGPYELEHSPGVVEQIIRPTGLLDPTIDVRPTKGQIDDLIGEIRERVERNERTLVTTLTKKMAEDLTDYLKEAGIKVAYLHSEIKTLERIEIIRDLRLGKYDVLVGINLLREGLDIPEVSLVAILDADKEGFLRSERSLIQTIGRAARNANGHVIMYADTITKSMEIAIQETKRRRAIQEEYNRKHGIVPRTVKKEIRDVIRATYAAEETEMYEAKPAAAMTKQEREELIRTLEAEMKEAAKALDFERAAQLRDIIFELKAEG
ATPase activity (mol of ATP hydrolyzed/mol of protein/min) [12]: 19
ATPase activity (with UV-irradiated DNA) (mol of ATP hydrolyzed/mol of protein/min) [12]: 29
